The source of these data is patent US11752213B2, “Surfaces having reduced non-specific binding and antigenicity” (Duke University, priority 2015, dated 2023).

This assay has as its system IgG Ab to PEG in patient plasma. The assay can be described thus: Indirect ELISA detection of APAs in patient plasma against Adagen-coated plates. In kind it is binding, human. The following applies: 5 replicates. As for the experimental part:
Informed signed consent was obtained from either the patient or from next of kin. (A) ELISA detection of APAs: Plasma samples diluted 1:21 in 1% BSA in PBS were tested by ELISA for IgG Ab to PEG, but using Adagen® (Sigma Tau Pharmaceuticals, Gaithersburg, Md.) rather than Krystexxa® as the antigen. (B) Surface fluoroimmunoassay against patient APAs: Polymer-coated surfaces were incubated with patient plasma samples diluted 1:3 in PBS for 1 h, and then washed 3 times with wash buffer (0.5% CHAPS in PBS). Next, the surfaces were exposed to a 1 μg/mL solution of Cy5-goat-anti-human IgG detection Ab (R & D Systems, Inc.) for 30 min. Surfaces were then rinsed again to remove any loosely-bound proteins, centrifuged at 4800 rpm for 15 s to wick away excess liquid, then allowed to dry under ambient conditions. Fluorescence imaging and analysis of all samples was performed using an Axon Genepix 4400 tabletop scanner and ImageJ Fiji as described above.
We performed an indirect ELISA on these patient plasma samples to quantify the level of IgG binding to Adagen (PEGylated adenosine deaminase).
(ELISA stands for enzyme-linked immunosorbent assay.)

B1: ADAGEN: a PEGylated adenosine deaminase for treating severe combined immunodeficiency disease (SCID) (conjugate)
chain: AQTPAFNKPKVELHVHLDGAIKPETILYYGRKRGIALPADTPEELQNIIGMDKPLSLPEFLAKFDYYMPAIAGCREAVKRIAYEFVEMKAKDGVVYVEVRYSPHLLANSKVEPIPWNQAEGDLTPDEVVSLVNQGLQEGERDFGVKVRSILCCMRHQPSWSSEVVELCKKYREQTVVAIDLAGDETIEGSSLFPGHVKAYAEAVKSGVHRTVHAGEVGSANVVKEAVDTLKTERLGHGYHTLEDATLYNRLRQENMHFEVCPWSSYLTGAWKPDTEHPVVRFKNDQVNYSLNTDDPLIFKSTLDTDYQMTKNEMGFTEEEFKRLNINAAKSSFLPEDEKKELLDLLYKAYGMPSPA
In the case of B1, the “OD 405 nm Avg” value runs as follows: (Pt# 1, APA neg, sample 929-237-01) 0.149; (Pt# 2, APA pos, sample 929-219-07) 0.714; (Pt# 3, APA pos, sample 929-237-12) 1.243; (Pt# 4, APA pos, sample 929-241-07) 1.679; (Pt# 5, APA pos, sample 929-218-21) 3.059.
